The source of these data is paper PMC12192683.

What is called pKd is the Kd on a negative log10 scale, so that one unit is a factor of ten.

pKd: −log10 of the molar value.

In the assay the target is low-density lipoprotein receptor-related protein 1 (LRP1), full-length, purified from human placenta (human) (UniProt Q07954). In words: SPR; LRP1 amine-coupled to CM5 chip; RBD or alkylated RBD flowed in HBS-P with 1 mM CaCl2, 25 C; equilibrium analysis (Req against concentration, single class of sites) and single injections of 1 uM.
low-density lipoprotein receptor-related protein 1 (LRP1), full-length, purified from human placenta (human), sequence (Q07954 20-4544): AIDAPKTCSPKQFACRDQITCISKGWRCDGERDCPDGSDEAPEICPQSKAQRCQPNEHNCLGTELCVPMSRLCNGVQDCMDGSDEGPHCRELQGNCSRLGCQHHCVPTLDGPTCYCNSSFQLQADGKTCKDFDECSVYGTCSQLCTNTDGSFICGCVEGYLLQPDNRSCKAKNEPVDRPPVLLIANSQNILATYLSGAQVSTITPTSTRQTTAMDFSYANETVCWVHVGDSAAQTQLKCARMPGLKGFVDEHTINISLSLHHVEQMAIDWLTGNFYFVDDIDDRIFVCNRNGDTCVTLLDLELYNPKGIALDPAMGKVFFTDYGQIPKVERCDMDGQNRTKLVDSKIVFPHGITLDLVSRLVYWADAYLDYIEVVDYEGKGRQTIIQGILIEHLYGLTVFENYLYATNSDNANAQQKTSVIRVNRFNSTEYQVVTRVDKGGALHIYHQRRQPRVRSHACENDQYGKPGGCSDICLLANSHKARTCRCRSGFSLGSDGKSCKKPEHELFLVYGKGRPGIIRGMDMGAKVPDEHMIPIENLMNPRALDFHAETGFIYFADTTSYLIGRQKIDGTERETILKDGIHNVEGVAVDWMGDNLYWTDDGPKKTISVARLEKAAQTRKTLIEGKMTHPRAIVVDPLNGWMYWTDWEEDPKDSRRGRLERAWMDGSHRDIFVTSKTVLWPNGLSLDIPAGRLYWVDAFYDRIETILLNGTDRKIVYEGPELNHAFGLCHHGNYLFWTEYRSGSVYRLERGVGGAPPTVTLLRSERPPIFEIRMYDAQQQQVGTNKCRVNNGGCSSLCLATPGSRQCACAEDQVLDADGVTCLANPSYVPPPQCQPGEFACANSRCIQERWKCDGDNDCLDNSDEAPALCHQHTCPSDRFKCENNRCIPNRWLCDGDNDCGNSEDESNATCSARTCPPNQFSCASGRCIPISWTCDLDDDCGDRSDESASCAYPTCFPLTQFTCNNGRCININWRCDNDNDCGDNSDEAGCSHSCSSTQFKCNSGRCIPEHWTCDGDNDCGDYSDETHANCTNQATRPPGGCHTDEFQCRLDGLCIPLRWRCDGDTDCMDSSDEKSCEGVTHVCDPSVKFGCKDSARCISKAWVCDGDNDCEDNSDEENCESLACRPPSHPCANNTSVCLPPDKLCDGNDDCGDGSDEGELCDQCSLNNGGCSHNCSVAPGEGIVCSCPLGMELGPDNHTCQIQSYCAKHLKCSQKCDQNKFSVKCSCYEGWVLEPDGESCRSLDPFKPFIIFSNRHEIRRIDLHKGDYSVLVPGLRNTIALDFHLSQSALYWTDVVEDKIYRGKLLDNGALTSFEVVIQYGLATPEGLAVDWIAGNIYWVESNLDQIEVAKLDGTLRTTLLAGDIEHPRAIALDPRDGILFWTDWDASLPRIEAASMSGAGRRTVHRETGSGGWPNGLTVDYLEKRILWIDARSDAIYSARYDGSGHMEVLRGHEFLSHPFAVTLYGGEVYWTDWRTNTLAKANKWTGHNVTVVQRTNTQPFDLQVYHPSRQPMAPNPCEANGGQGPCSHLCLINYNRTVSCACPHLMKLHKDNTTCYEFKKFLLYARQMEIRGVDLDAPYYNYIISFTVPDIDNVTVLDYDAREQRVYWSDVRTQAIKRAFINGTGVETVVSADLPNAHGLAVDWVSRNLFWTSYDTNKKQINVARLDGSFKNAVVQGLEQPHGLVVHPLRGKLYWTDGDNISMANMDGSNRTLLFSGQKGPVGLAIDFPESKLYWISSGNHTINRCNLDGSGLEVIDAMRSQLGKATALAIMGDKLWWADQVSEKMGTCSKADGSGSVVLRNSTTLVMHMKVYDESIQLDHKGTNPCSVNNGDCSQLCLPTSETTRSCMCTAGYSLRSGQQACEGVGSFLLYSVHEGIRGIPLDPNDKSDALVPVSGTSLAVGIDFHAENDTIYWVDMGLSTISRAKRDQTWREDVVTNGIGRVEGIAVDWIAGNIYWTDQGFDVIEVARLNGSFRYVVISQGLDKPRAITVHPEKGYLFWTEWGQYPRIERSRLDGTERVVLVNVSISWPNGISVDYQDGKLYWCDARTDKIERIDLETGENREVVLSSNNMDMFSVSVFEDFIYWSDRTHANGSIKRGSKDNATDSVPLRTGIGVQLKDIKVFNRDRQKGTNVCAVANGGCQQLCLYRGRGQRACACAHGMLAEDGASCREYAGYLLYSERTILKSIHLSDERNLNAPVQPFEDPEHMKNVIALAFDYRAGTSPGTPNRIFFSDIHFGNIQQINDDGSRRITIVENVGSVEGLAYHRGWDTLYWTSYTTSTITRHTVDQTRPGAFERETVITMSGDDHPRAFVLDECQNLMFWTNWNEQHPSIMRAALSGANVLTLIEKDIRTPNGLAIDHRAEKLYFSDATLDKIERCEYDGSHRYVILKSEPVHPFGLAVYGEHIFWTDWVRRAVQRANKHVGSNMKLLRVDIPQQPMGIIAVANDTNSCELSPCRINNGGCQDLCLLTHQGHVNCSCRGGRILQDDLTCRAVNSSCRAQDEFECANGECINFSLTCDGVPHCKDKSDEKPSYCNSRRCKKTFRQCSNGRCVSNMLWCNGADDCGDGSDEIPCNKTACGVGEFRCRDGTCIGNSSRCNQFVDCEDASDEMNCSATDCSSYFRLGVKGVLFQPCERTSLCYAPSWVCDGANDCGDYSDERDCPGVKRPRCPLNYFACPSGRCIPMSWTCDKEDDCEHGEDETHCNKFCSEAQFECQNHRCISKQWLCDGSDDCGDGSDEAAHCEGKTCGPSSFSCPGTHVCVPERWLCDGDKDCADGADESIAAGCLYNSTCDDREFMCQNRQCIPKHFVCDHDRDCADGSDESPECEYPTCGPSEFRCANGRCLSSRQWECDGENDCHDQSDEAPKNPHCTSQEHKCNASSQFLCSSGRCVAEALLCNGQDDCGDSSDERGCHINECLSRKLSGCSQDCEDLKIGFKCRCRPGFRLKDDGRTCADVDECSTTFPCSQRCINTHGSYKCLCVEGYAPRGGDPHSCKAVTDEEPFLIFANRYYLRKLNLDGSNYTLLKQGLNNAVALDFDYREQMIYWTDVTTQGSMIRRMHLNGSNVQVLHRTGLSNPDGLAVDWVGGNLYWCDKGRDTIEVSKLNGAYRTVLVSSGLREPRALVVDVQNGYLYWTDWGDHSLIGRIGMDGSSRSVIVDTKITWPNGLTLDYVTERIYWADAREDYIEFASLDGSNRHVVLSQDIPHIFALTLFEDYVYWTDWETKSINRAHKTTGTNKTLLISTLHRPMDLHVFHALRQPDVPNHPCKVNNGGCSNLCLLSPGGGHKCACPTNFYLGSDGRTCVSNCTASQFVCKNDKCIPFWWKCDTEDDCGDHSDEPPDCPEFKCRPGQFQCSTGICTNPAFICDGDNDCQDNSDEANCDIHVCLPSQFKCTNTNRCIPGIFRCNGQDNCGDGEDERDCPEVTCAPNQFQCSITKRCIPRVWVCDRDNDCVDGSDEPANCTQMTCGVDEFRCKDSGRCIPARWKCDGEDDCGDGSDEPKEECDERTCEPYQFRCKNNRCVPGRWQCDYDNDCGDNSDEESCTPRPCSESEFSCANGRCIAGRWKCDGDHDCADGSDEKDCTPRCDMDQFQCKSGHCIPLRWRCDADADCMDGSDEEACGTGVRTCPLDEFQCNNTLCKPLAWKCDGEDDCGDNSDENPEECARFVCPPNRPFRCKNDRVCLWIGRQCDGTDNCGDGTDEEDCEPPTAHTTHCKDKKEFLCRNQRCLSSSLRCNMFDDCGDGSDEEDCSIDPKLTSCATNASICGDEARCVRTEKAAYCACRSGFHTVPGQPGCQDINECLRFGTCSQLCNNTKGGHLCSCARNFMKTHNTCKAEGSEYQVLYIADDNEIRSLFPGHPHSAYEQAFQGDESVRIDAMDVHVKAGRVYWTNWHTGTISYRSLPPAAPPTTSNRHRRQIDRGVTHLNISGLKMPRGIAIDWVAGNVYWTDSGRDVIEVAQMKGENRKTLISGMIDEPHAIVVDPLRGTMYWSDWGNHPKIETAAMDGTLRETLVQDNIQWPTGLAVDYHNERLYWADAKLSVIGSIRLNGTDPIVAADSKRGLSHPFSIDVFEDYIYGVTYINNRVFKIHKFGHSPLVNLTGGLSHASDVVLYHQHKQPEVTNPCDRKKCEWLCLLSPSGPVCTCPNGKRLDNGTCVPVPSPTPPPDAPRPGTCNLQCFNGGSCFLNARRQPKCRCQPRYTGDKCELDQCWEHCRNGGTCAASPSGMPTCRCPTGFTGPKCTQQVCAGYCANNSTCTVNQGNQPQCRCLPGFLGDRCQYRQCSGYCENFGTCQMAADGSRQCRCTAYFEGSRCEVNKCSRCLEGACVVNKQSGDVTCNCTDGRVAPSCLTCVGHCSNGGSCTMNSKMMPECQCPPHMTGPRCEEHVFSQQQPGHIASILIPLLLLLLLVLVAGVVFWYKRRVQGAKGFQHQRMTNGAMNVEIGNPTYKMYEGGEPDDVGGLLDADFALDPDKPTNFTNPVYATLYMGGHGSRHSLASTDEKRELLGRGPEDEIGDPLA

In turn, “SARS-CoV-2 spike protein receptor binding domain (Arg319-Phe541), his tagged (from UniProt P0DTC2 319-541) (domain or fragment)” gave a pKd of 6.72.
